Read-outs that look alike come from different tables or passages of the source.
Experiments:
CD16a-F ECD [1] = molecular target: CD16a-F ECD (human); test: ELISA, + 10 mg/ml hIgG
CD16a-F ECD [2] = molecular target: CD16a-F ECD (human); test: ELISA
CD16b-NA1 ECD [3] = molecular target: T1, CD16b-NA1 ECD (human); test: ELISA
T1 chain: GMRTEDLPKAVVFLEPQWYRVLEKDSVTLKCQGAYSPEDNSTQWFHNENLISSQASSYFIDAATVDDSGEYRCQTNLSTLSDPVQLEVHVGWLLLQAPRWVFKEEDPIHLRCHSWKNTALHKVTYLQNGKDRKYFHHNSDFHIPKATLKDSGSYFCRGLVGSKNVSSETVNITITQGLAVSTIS

CD16a-V ECD [4] = molecular target: CD16a-V ECD (human); test: ELISA
CD16a-F ECD-Fc = CD16a-F ECD-Fc (human); test: ELISA
CD16a-V ECD [5] = molecular target: CD16a-V ECD (human); test: ELISA, + 10 mg/ml hIgG
CD16b-NA2 ECD [6] = molecular target: T2, CD16b-NA2 ECD (human); test: ELISA
T2 chain: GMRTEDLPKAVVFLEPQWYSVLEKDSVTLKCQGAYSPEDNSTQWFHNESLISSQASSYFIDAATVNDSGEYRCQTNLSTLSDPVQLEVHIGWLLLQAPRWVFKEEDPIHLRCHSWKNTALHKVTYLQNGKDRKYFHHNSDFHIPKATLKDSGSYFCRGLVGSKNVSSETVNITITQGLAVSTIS

[7] = molecular target: CD16a-F ECD deglycosylated (human); test: ELISA
CD16b-NA2 ECD [8] = molecular target: T2, CD16b-NA2 ECD; test: ELISA
Mouse FcgRIV = molecular target: T3, Mouse FcgRIV (mouse, UniProt A0A0B4J1G0); test: BLI, 30C
T3 chain: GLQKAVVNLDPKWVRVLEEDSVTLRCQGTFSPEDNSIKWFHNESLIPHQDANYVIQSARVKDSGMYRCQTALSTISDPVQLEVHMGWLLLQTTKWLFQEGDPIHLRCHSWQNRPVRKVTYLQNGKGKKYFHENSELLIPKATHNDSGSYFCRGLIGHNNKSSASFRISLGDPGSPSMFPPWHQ

CD16a-F ECD [9] = molecular target: CD16a-F ECD (human); test: ELISA; remark: listed apart in the source
CD16a-V ECD [10] = molecular target: CD16a-V ECD (human); test: ELISA; remark: listed apart in the source
CD16b-NA1 ECD [11] = molecular target: T1, CD16b-NA1 ECD; test: BLI, 30C
[12] = molecular target: CD16a-V ECD deglycosylated (human); test: ELISA
Cyno CD16a ECD = molecular target: T4, Cyno CD16a ECD (cynomolgus); test: BLI, 30C
T4 chain: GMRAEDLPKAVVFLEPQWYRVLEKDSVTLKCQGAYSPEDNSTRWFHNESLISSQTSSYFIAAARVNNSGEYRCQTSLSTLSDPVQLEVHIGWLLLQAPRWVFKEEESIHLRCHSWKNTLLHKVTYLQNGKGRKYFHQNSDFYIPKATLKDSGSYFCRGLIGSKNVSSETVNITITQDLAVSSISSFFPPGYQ

CD16b on neutrophils = molecular target: T5, CD16b on neutrophils (human, UniProt O75015); test: FACS, neutrophils
T5 chain: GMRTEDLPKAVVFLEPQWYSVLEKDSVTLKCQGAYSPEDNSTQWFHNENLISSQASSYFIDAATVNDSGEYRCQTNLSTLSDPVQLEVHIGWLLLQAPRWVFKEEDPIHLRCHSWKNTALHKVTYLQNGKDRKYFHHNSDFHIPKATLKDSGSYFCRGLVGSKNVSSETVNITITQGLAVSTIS

CD16a-F D82N = CD16a-F D82N (human); test: FACS
Sequence of CD16a-F D82N (human) (chain, as listed by the source D82N): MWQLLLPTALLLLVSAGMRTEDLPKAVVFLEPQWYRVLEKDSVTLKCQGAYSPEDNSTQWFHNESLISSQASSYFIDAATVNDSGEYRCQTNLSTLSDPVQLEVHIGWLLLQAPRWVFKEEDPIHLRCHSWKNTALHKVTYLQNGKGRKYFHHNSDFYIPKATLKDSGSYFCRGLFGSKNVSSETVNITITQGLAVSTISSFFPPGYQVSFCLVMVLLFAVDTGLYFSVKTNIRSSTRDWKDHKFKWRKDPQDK

CD16b-NA2 ECD [13] = molecular target: T2, CD16b-NA2 ECD; test: BLI, 30C
CD16a-V ECD [14] = molecular target: CD16a-V ECD (human); test: BLI, 30C
CD16a-F ECD [15] = molecular target: CD16a-F ECD (human); test: ELISA; remark: listed apart in the source
CD16b-NA1 ECD [16] = molecular target: T1, CD16b-NA1 ECD; test: ELISA
[17] = molecular target: T6, CD16b-NA2 ECD deglycosylated (human); test: ELISA
T6 chain: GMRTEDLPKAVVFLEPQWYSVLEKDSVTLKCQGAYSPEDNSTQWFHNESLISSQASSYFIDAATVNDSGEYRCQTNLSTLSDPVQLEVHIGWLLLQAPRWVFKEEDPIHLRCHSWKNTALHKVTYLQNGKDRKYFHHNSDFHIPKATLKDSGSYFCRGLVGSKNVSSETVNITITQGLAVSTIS

[18] = molecular target: T7, CD16b-NA1 ECD deglycosylated (human); test: ELISA
T7 chain: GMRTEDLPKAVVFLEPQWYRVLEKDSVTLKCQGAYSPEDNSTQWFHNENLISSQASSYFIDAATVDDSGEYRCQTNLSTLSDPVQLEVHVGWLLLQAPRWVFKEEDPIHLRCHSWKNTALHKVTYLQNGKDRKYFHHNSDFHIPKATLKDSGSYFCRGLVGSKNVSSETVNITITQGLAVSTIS

CD16b-NA2 ECD [19] = molecular target: T2, CD16b-NA2 ECD; test: ELISA
CD16a-V ECD [20] = molecular target: CD16a-V ECD (human); test: ELISA; remark: listed apart in the source
CD16a-F ECD [21] = molecular target: CD16a-F ECD (human); test: BLI, 30C

B1: #3A2 IgG1 (antibody)
chain 1: QLQLQESGPGLVKPSETLSLTCTVSGGSIGRGDYYWGWIRQPPGKGLEWIGTIDYSGRTYYNPSLKSRVTISVDTSKNQFSLKLSSVTAADTAVYYCARAFPGEYFGVFDHWGQGTLVTVSS
chain 2: EIVLTQSPGTLSLSPGERATLSCRASQSVSSSYLAWYQQKPGQAPRLLIYDATSRATGIPDRFSGSGSGTDFTLTISRLEPEDFAVYYCQQYDSSSLITFGQGTKVEIK
A Kd (CD16a-F ECD [1]) of 0.74 nM, a Kd (CD16a-F ECD [2]) of 0.048 nM and a Kd (CD16b-NA1 ECD [3]) of over 1000 nM were found for B1 in this work. It also gave a Kd (CD16a-V ECD [4]) of 0.051 nM, a Kd (CD16a-F ECD-Fc) of 0.11 nM and a Kd (CD16a-V ECD [5]) of 0.53 nM. For the same binder, the Kd (CD16b-NA2 ECD [6]) was 546 nM.

B2: #6A2 IgG1 (antibody)
chain 1: QLQLQESGPGLVKPSETLSLTCTVSGGSIGRGDYYWGWIRQPPGKGLEWIGTIDYSGRTYYNPSLKSRVTISVDTSKNQFSLKLSSVTAADTAVYYCARAFPGEYFGVFDHWGQGTLVTVSS
chain 2: not shown
A Kd (CD16a-F ECD [1]) of 0.67 nM, a Kd (CD16a-F ECD [2]) of 0.14 nM and a Kd (CD16b-NA1 ECD [3]) of 1300 nM were found for B2 in this work. For the same binder, the Kd (CD16a-V ECD [4]) was 0.16 nM, the Kd (CD16a-F ECD-Fc) was 0.13 nM and the Kd (CD16a-V ECD [5]) was 0.61 nM. The Kd (CD16b-NA2 ECD [6]) was 298 nM.

B3: #55 IgG1 (antibody)
chain 1: EVQLLESGGGLVQPGGSLRLSCAASGFTFSNYAMSWVRQAPGKGLEWVSAISGGGSYTYYADSVKGRFTISRDNSKNTLYLQMNSLRAEDTAVYYCARTYLRRWYYFDYWGQGTLVTVSS
chain 2: DIQMTQSPSSLSASVGDRVTITCRASQTITSYLNWYQQKPGKAPKLLIYAASSLQSGVPSRFSGSGSGTDFTLTISSLQPEDFATYYCQQSYTSPVTFGQGTKVEIK
In the case of B3, the Kd [7] is reported as 1 nM, the Kd (CD16b-NA2 ECD [8]) is reported as 239 nM and the binding result (Mouse FcgRIV) is reported as “no binding”. For the same binder, the Kd (CD16a-F ECD [9]) was 0.28 nM, the Kd (CD16a-V ECD [10]) was 0.85 nM and the binding result (CD16b-NA1 ECD [11]) was “no binding”. For the same binder, the Kd [12] was 0.53 nM, the binding result (Cyno CD16a ECD) was “no binding” and the binding result (CD16b on neutrophils) was “no binding”. For the same binder, the Kd (CD16a-F ECD-Fc) was 0.1 nM, the binding result (CD16a-F D82N) was “no binding” and the Kd (CD16b-NA2 ECD [13]) was 214 nM. For the same binder, the Kd (CD16a-V ECD [14]) was 6.6 nM, the Kd (CD16a-F ECD [15]) was 0.98 nM and the Kd (CD16b-NA1 ECD [16]) was 73 nM. It also gave a Kd [17] of 1 nM, a Kd [18] of 11.2 nM and a Kd (CD16b-NA2 ECD [19]) of about 200 nM. For the same binder, the Kd (CD16a-V ECD [20]) was 0.4 nM and the Kd (CD16a-F ECD [21]) was 18 nM.

— patent publication US20260308258 (published 2026)
